Laboratory results reported in patent publication US20140308707A1, “METHOD FOR PRODUCTION OF FACTOR VIII” (Novo Nordisk A/S, priority 2011, published 2014).
Several values for one entry are separate records, joined by “and”; a condition that tells them apart may be missing. Identical values can stand only once.

Key:
[1] = test system: cell membrane of HEK293 cells; assay: Homologous competition assay: binding of 125I-BDD-FVIII to the cell membrane with blocking agents; conditions: for % of total binding: 0.5 nM 125I-FVIII, 4° C., 2 hours, Annexin V 500 nM, OPLS 20 mM, Heparin 100 ug/mL, RAP 500 nM; for reduction of membrane attached FVIII: same experiment as Table 2
Experimental: The affinity of purified B-domain deleted factor VIII (BDD-FVIII) (kindly provided by J. Karlsson and L. Thim, Novo Nordisk A/S) to the cell membrane of HEK293 cells was investigated by a homologous competition assay using ^125I-BDD-FVIII and unlabelled BDD-FVIII. Cells were washed once in PBS+1% BSA. 5×10^5 cells were distributed to a microtiter well and the plate was cooled to 4° C. During blocking of the cell surface, binding of BDD-FVIII was examined. A constant concentration of ^125I-FVIII (0.5 nM) was added simultaneously with either Annexin V (0.5 μM, Sigma), Ortho-Phospho-L-serine (20 mM, Sigma), Heparin (100 μg mL-1, Leo Pharmaceuticals), and Receptor Associated Protein (RAP) 0.5 μM (kindly provided by H. H. Petersen, Novo Nordisk A/S) at 4° C. to prevent endocytosis.
The plate was incubated at 4° C. for 2 hours with gentle shaking. After centrifugation unbound (non-membrane attached) ^125I-FVIII was removed and cells were washed twice in ice-cold assay buffer (10 mM HEPES, 150 mM NaCl, 4 mM KCl, 11 mM glucose, 5 mM CaCl2, 1 mg ml^−1 BSA, pH 7.4). Surface bound ^125I-FVIII was counted on a gamma-counter. The experiments were performed twice in triplicate. Non-specific binding was estimated in the presence of 12000× excess of unlabeled BDD Factor VIII.
In an attempt to determine potent inhibitors of the cell membrane interaction, four proteins known for their specific effect in either: 1) blocking phosphatidylserine (annexin V), 2) interacting with the C2 domain of FVIII (OPLS), 3) interacting with receptors that facilitate internalisation followed by degradation such as LRP (Lipoprotein receptor-related protein) and HSPGs (heparin sulphate proteoglycans) were tested (RAP, heparin).

[2] = test system: CHO DUKX B11 cells stably expressing BDD-FVIII; assay: FVIII membrane displacement cell cultures (additives in culture medium, culture fluid and membrane bound fraction assayed); type: cell-based; conditions: 24 hours, serum free medium, OPLS 20 mM, F8 LC 1.38 μM, Lactadherin 0.15 μM, unit from b101
Experimental: The additives mentioned below (lactadherin, Factor VIII light chain and/or OPLS) were added to the culture medium and the cells were incubated for 24 hours following assaying of the culture fluid and the membrane bound fraction.

[3] = test system: HKB11 cells; assay: Transient co-expression with F8, FVIII coagulation activity (two-stage chromogenic assay, coa); type: cell-based; conditions: for displacement of F8 from the cell surface into the supernatant: in words
Experimental: (§1) HEK293 cells were maintained in commercial FreeStyle medium supplemented with 50 U/mL penicillin and 50 ug/mL streptomycin. Cells were grown as suspension cells in shakers and incubated at 37° C. under 5% CO2 and 95% relative humidity conditions.
(§2) Cells were seeded at a density of 3×10^5 cells/mL and passaged every 3-4 days. For transfection experiments the cell culture was scaled up until the target density was reached. Viable and total cell concentrations were evaluated by Cedex (Innovartis) analysis. The instrument uses image analysis software for automated cell counting and viable cells were identified based on their ability to exclude trypan blue.
(§3) Plasmid DNA was transfected into HKB11 cells by 293 fectin following the manufacturer's recommendations. Conditioned medium was harvested on indicated days following gentle centrifugation of the suspension culture. The cell pellet was resuspended in FreeStyle medium containing 0.5M NaCl and after gentle centrifugation, a sample, representing the FVIII attached to the cell membrane was taken. Samples were stored at −80° C. until analysis.
(§4) FVIII coagulation activity was measured by a two-stage chromogenic assay (Coamatic Factor VIII analysis kit, Chromogenix). Factor VIII:Ag assay was performed using polyclonal antibodies from Affinity Biologicals (F8C-EIA). Both assays were done following the manufactures instructions and with in-house B-domain deleted affinity purified Factor VIII as standard.

[4] = test system: HKB11 cells; assay: Transient co-expression with F8, Factor VIII:Ag ELISA; type: cell-based
Experimental: as §1, §2, §3, §4

## RAP: Receptor Associated Protein (RAP)
[1]
  % of total binding: 106.6%
  reduction of membrane attached FVIII: no effect

## N[C@@H](COP(=O)(O)O)C(=O)O [OPLS, Ortho-Phospho-L-serine, reference compound]
[1]
  % of total binding: 68.4%
  reduction of membrane attached FVIII: ~30%
[2]
  supernatant average (activity of FVIII in the culture medium): 6000 mU/mL and 6347 mU/mL
  wash average (FVIII activity on the membrane): 1691 mU/mL

## Heparin
[1]
  % of total binding: 86.8%
  reduction of membrane attached FVIII: small but not significant effect

B1: Lactadherin: lactadherin, agent that binds to phosphatidylserine; added to medium or co-expressed with F8 (protein)
chain: LDICSKNPCHNGGLCEEISQEVRGDVFPSYTCTCLKGYAGNHCETKCVEPLGMENGNIANSQIAASSVRVTFLGLQHWVPELARLNRAGMVNAWTPSSNDDNPWIQVNLLRRMWVTGVVTQGASRLASHEYLKAFKVAYSLNGHEFDFIHDVNKKHKEFVGNWNKNAVHVNLFETPVEAQYVRLYPTSCHTACTLRFELLGCELNGCANPLGLKNNSIPDKQITASSSYKTWGLHLFSWNPSYARLDKQGNFNAWVAGSYGNDQWLQVDLGSSKEVTGIITQGARNFGSVQFVASYKVAYSNDSANWTEYQDPRTGSSKIFPGNWDNHSHKKNLFETPILARYVRILPVAWHNRIALRLELLGC
modifications: homo sapiens
notes: added to medium or co-expressed with F8
[2]
  supernatant average (activity of FVIII in the culture medium): 8085 mU/mL
  wash average (FVIII activity on the membrane): 1406 mU/mL
[2]; listed as lactadherin
  supernatant average (activity of FVIII in the culture medium): further increases the amount of FVIII in the culture medium
  wash average (FVIII activity on the membrane): a decline in membrane bound FVIII is observed
[3]; day 3, viability ~90%
  displacement of F8 from the cell surface into the supernatant: effectively displacement
[3]; day 4, viability ~80%
  displacement of F8 from the cell surface into the supernatant: could no longer keep F8 in the supernatant
[3]; harvest day 3, supernatant
  coa, supernatant: 5448 +/− 122 mU/ml
[3]; harvest day 3, wash (0.5M NaCl, membrane attached FVIII)
  coa, wash: 640 +/− 116 mU/ml
[3]; harvest day 4, supernatant
  coa, supernatant: 1044 +/− 425 mU/ml
[3]; harvest day 4, wash (0.5M NaCl, membrane attached FVIII)
  coa, wash: 3575 +/− 558 mU/ml
[3]; harvest day 5, supernatant
  coa, supernatant: 327 +/− 13 mU/ml
[3]; harvest day 5, wash (0.5M NaCl, membrane attached FVIII)
  coa, wash: 3510 +/− 46 mU/ml
[4]; harvest day 3, supernatant
  FVIII ELISA, supernatant: 530 ± 113 ng/mL
[4]; harvest day 3, wash
  FVIII ELISA, wash: 67 ± 0 ng/mL
[4]; harvest day 4, supernatant
  FVIII ELISA, supernatant: 270 ± 54 ng/mL
[4]; harvest day 4, wash
  FVIII ELISA, wash: 278 ± 37 ng/mL
[4]; harvest day 5, supernatant
  FVIII ELISA, supernatant: 108 ± 119 ng/mL
[4]; harvest day 5, wash
  FVIII ELISA, wash: 287 ± 33 ng/mL

B2: Annexin V: Ca++ dependent phospholipid-binding protein that react with phosphatidylserine (Sigma) (protein)
chain: MAQVLRGTVTDFPGFDERADAETLRKAMKGLGTDEESILTLLTSRSNAQRQEISAAFKTLFGRDLLDDLKSELTGKFEKLIVALMKPSRLYDAYELKHALKGAGTNEKVLTEIIASRTPEELRAIKQVYEEEYGSSLEDDVVGDTSGYYQRMLVVLLQANRDPDAGIDEAQVEQDAQALFQAGELKWGTDEEKFITIFGTRSVSHLRKVFDKYMTISGFQIEETIDRETSGNLEQLLLAVVKSIRSIPAYLAETLYYAMKGAGTDDHTLIRVMVSRSEIDLFNIRKEFRKNFATSLYSMIKGDTSGDYKKALLLLCGEDD
modifications: homo sapiens
[1]
  % of total binding: 28.5%
  reduction of membrane attached FVIII: ~70%
